Measurements: US20240174750A1 (VIRTUOSO BINCO, published 2024)
Each block holds one binder with its values, some of them ahead of it.

Tests used:
[1] = molecular target: T1, extracellular domain (ECD) of human CD47 (19aa-139aa) with C-terminal 6xHis tag (human, UniProt Q08722 19-139); assay: ELISA, coated recombinant CD47; EC50 as grade, legend the 6th table, row 26
T1 construct: also called recombinant CD47; recombinant human CD47
Protocol: A 96-well plate was coated overnight at 4° C. with 1 μg/ml recombinant CD47. After washing 3 times, the plate was blocked with 300 μL 1% BSA in PBST at 37° C. for 1 hour. Serially diluted antibodies were added and incubated at 37° C. for 1 hour. The plate was then washed 4 times with PBST and incubated with 1:5000 diluted 2nd antibody (Sigma, Cat #A0293) at 37° C. for 1 hour.

[2] = molecular target: T2, CD47 on the surface of CD47+ cells (human, UniProt Q08722 19-323); assay: flow cytometry on CD47+ cell lines; EC50 as grade, legend the 7th table, row 26
T2 construct: whole, on cells; also called CD47+ cell lines; CD47 on Raji cells, HCT-15 cells, human red blood cells (RBCs), human platelets
Protocol: Antibody binding to CD47+ cell lines was quantified by flow cytometry. Harvested cells were centrifuged at 2000 rpm for 5 min, resuspended in 10-15 mL ice-cold culture medium, and then counted. Cells were resuspended in blocking buffer (PBS plus 2% FBS) at a concentration of 3×10⁶ cells/mL. 100 μL of the cell suspension was dispensed into each well of a 96-well plate. Purified antibodies were diluted to the desired concentrations with blocking buffer and 100 μL of diluted antibodies were added to the well and incubated for 1 hour at 4° C. The cells were then washed 3 times with PBS plus 2% FBS. […] The cells were then washed 3 times with 200 μL PBS by centrifuging at 2000 rpm for 5 min. After the last wash, the cells were resuspended in 300 μL cold PBS and analyzed on a FACSVerse™ (BD Biosciences) flow cytometer.

[3] = molecular target: T1, extracellular domain (ECD) of human …; assay: SPR, Biacore 8K, antibody captured by anti-human Fc, monomeric CD47 ECD injected, 25 C, 1:1 Langmuir
Protocol: Furthermore, binding kinetics measurements of the anti-CD47 antibodies were not affected by antibody valency in the SPR assays because antibodies were immobilized and challenged with monomeric antigens. SPR was performed on a Biacore 8K instrument (GE Healthcare). Antibodies were captured on Biacore Series S CM5 sensor chips coated with a monoclonal mouse anti-human IgG (Fc) antibody (GE Healthcare human antibody capture kit). Serial 3-fold dilutions of CD47 ECD antigen were injected at a flow rate of 30 μL/min. Each sample was analyzed with 1 min association and 10 min dissociation at room temperature (25° C.). After each injection, the chip was regenerated using 3M MgCl₂. A 1:1 Langmuir model of simultaneous fitting of kon and koff was used for kinetics analysis.

[4] = molecular target: T2, CD47 on the surface of CD47+ cells; assay: flow cytometry, competition with SIRPA-mIgG2a on CD47+ tumor cells; IC50 as grade, legend the 8th table, row 26
Protocol: Tumor cells were harvested, centrifuged, and then resuspended in FACS buffer (PBS plus 2% FBS) at a concentration of 2×10⁶ cells/mL. 100 μL of the cell suspension was dispensed into each well of a 96-well plate. The plate was centrifuged for 5 min and 300×g, and the supernatants were discarded. […] After washing twice with FACS buffer, the plates were resuspended with 300 μL FACS buffer and analyzed by flow cytometry.

- EC50 [1]: 0.01 to 0.1 nM
- EC50 [2]: 0.5 to 5 nM
- Kd [3]: 10 to 100 nM
- IC50 [4]: 0.1 to 1 nM
B1: R.18B9 (antibody, human IgG1, kappa, V domains shown)
VH: QSLEESGGDLVKPGASLTLTCKASGFSFNSGYMCWVRQAPGKGLEWIACIYAGSSGKTYYASWATGRFTISKTSSTTVTLQMTSLTVADTATYFCARDDGGTYYTDYLYLWGPGTLVTVSS
VL: DVVMTQTPASVEAAVGGTVTIKCQASEGISSYLSWYQQKPGQPPKLLIYKASTLTSGVPSRFKGSGSGTDFTLTISDLESADAATYYCQCTYGSSGSSGYGAAFGGGTEVVVKR
notes: Chimeric: rabbit variable domains, human IgG1 and human kappa constant regions; also called Chimeric antibody 18B9

- EC50 [1]: 0.01 to 0.1 nM
- EC50 [2]: 0.1 to 0.5 nM
- Kd [3]: 1 to 10 nM
- IC50 [4]: 0.1 to 1 nM
B2: M.1D15E11 (antibody, human IgG1, kappa, V domains shown)
VH: EVQLQQSGPELVKPGAPVKMSCKASGYTFTSYVMHWVKQKPGQGLEWIGYIDPYNDGTKYNEKFKGKATLTSDKSSSTAYMELSSLTSEDSAVYYCSRGGMARRSFDYWGQGTTLTVSS
VL: DIQMTQSPASQSASLGESVTITCLASQTIGTWLTWYQQKPGKSPQLLIYAATTLADGVPSRFSGSGSGTKFSFKISSLQAEDFVSYYCQQLYSTPWTFGGGTKLEIKR
notes: Chimeric: mouse variable domains, human IgG1 and human kappa constant regions; also called Chimeric antibody 1D15E11
